The text below walks through data of article PMC10881517.

One assay has as its target Cdh23 EC1-10. Briefly: AFM force-clamp spectroscopy (single molecule); Pcdh15 EC1-2 covalently on the cantilever, Cdh23 variants (EC1-5, EC1-10, EC1-21, EC1-27) covalently on the coverslip (sortagging, Mal-PEG2-NHS); contact 1-2 s, clamp 10 s; 25 mM HEPES, 100 mM NaCl, 50 mM KCl, 50 µM CaCl2; modified sliding-rebinding model fit with unfolding probabilities.
The target of the next assay is Cdh23 EC1-21. The assay is described as above.
The next assay addresses Cdh23 EC1-5. The assay is described as above.
In assay [1] the target is full-length Cdh23 EC1-27 (27 domains). Described as above.
Assay [2] concerns the target Mouse Cdh23 EC1-2 (mouse) (UniProt Q99PF4). The assay is described as follows: AFM force-clamp spectroscopy (single molecule); Pcdh15 EC1-2 (WT or R113G) covalently on the cantilever, Cdh23 EC1-2 covalently on the coverslip (sortagging, Mal-PEG5000-NHS); contact 1-2 s, clamp 10 s; 25 mM HEPES, 100 mM NaCl, 50 mM KCl, 50 µM CaCl2; modified sliding-rebinding model fit of lifetime against force.

Assay [3] addresses Pcdh15 EC1-11 PICA (cis-dimer). Briefly: AFM force-clamp spectroscopy (single molecule); Cdh23 EC1-27-Fc dimer covalently on the cantilever, Pcdh15 EC1-11 PICA dimer covalently on the coverslip (sortagging); cantilever retracted 70 nm before clamping, clamping time 20 s; 25 mM HEPES, 100 mM NaCl, 50 mM KCl, 50 µM CaCl2; lifetimes from exponential fits of survival probability, Bell model fits.

Mouse Cdh23 EC1-2 (mouse), sequence (Q99PF4 24-228): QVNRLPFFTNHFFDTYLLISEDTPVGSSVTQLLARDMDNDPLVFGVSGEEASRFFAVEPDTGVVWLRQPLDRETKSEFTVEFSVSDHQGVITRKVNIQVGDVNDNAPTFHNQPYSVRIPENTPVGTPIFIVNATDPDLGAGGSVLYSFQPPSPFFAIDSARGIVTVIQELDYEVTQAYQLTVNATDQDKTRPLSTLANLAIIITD

As to “Mouse Pcdh15 EC1-2 (from UniProt Q99PJ1 27-259) (domain or fragment)”, the k+1 (intrinsic rate of reorganization, sliding-rebinding model) in the assay with Cdh23 EC1-10 is 0.9 s⁻¹; in the assay with Cdh23 EC1-21, 1.2 s⁻¹; with Cdh23 EC1-5 it was 0.9 s⁻¹; in assay [1], 0.5 s⁻¹. Moreover, the k+2 (intrinsic rate of rebinding, sliding-rebinding model) with Cdh23 EC1-10 stood at 7.8 s⁻¹; with Cdh23 EC1-21, 0.8 s⁻¹; with Cdh23 EC1-5 it was 29.4 s⁻¹; in assay [1], 0.5 s⁻¹. Also, the k-1 (intrinsic off-rate at zero force, single bond of the sliding-rebinding model) in the assay with Cdh23 EC1-10 came to 0.39 s⁻¹; in the assay with Cdh23 EC1-21, 0.35 s⁻¹; in the assay with Cdh23 EC1-5, 0.61 s⁻¹; in assay [1] it was 0.29 s⁻¹. In addition, the zero-force lifetime in the assay with Cdh23 EC1-5 worked out at 1.6 s; in assay [1] it was 3.4 s.

“Pcdh15 EC1-2 (R113G), Q99PJ1 27-259 (domain or fragment; other documents disagree on this pair)”: in assay [2], the k+1 (intrinsic rate of reorganization, sliding-rebinding model) is 0.6 s⁻¹ and the k-1 (intrinsic off-rate at zero force, single bond of the sliding-rebinding model) turned out to be 0.3 s⁻¹.

Regarding “Cdh23 EC1-27 with the Fc region on its C-terminus (cis-dimer) (Fc fusion)”, in assay [3], the intrinsic lifetime (τ0), low-force slip regime extrapolated to zero force is 31.8 s; the lifetime in the ideal-bond region (τ0) was found to be 6.3 s; the lifetime of the short-lived component of the bi-exponential decay at high forces (>70 pN) was 1 s; the τ0 of the Bell fit of the second slip region was found to be 8.4 s.
